Measured values published in article PMC12368060 (Communications Biology, 2025).
Square brackets hold non-standard residues; d marks the D form. Ends that are not written are not given here. * marks the point of attachment. FITC = O=C1OC2(c3ccc(O)cc3Oc3cc(O)ccc32)c2ccc(NC(=S)*)cc21; pS = N[C@@H](COP(=O)(O)O)C(=O)O; Ahx = NCCCCCC(=O)O

Experiments:
[1] = molecular target: T1, GST-fused LC3B (UniProt Q9GZQ8 1-120); assay: SPR
[2] = molecular target: T1, GST-fused LC3B; assay: microfluidic diffusional sizing

| Binder | Kd [1] [µM] | koff [1] [s⁻¹] | kon [1] [M⁻¹ s⁻¹] | Kd [2] [µM] | stoichiometry N [2] | fold increase in Kd against pS177 alone [2] [fold] | fold increase in binding affinity against pS177 alone [2] [fold] |
| --- | --- | --- | --- | --- | --- | --- | --- |
| {FITC-Ahx}-NSSGSSED[pS]FVEIRMAE [FITC-Ahx OPTN LIR peptide 169-185 (pS177)] | 21.2 | 0.377 | 17800 | 14.9 | 1 |  |  |
| {FITC-Ahx}-NSSGSSEDSFVEIRMAE [FITC-Ahx OPTN LIR peptide 169-185 (WT)] | 63.5 | 0.0351 | 550 | 67.1 | 1 |  |  |
| {FITC-Ahx}-NSSGSSEDSWVEIRMAE [FITC-Ahx OPTN LIR peptide 169-185 (F178W)] |  |  |  | 19.1 | 1 |  |  |
| {FITC-Ahx}-NSSGSSEDDFVEIRMAE [FITC-Ahx OPTN LIR peptide 169-185 (S177D)] |  |  |  | 36.7 | 1 |  |  |
| {FITC-Ahx}-NSSGSSEDEFVEIRMAE [FITC-Ahx OPTN LIR peptide 169-185 (S177E)] |  |  |  | 40.2 | 1 |  |  |
| {FITC-Ahx}-NSSGSSED[pS]AVEIRMAE [FITC-Ahx OPTN LIR peptide 169-185 (pS177 F178A)] | > 100 |  |  |  |  | 7 |  |
| {FITC-Ahx}-NSSGSSED[pS]WVEIRMAE [FITC-Ahx OPTN LIR peptide 169-185 (pS177 F178W)] |  |  |  |  | 1 |  | 7 |
| {FITC-Ahx}-NSSGSSED[pS]FVEIRAAE [FITC-Ahx OPTN LIR peptide 169-185 (pS177 M183A)] | 36.7 |  |  |  | 1 |  |  |
